Values quoted from earlier work, collected in article PMC6769993, “Immunomodulatory Functions of the Human Cathelicidin LL-37 (aa 13–31)-Derived Peptides are Associated with Predicted α-Helical Propensity and Hydrophobic Index” (Biomolecules, 2019).

From the text: The minimum region of LL-37 required for its immunomodulatory functions is an internal sequence from amino acids 13–31 [13], known as peptide IG-19. […] IG-19 suppresses inflammatory cytokine production by engaging various signaling intermediates in the presence of bacterial endotoxin or cytokine IL-32 [10, 13, 14]. Both LL-37 and IG-19 also share structural similarities; these are both α-helical amphipathic peptides with net positive charges of +6 and +5, respectively. Previous s ...

For “LL-37: the only human cathelicidin cationic host defense peptide, 37 amino acids”, the Net positive charge is listed as “+6”.
